These results are taken from the DeepSol protein solubility set.

A short description of this data set: soluble on expression in E. coli; label from the status in PepcDB or PDB records.
“MSLDPEDVYDGGYGSKHSPVQLRIGNGGAGQSGLVKELADAFIKSKVDSGSAPFKVAWYKSDTTVTINYLKDGIVDVGITYSPVAERISIKHGISESPSYYAFRDHFMLIGPPSNPAKLSGDSDIADMFSKMHDAAEAGNTKPPVRFLSRYDKSATNIKEAELWLSIGQVPWATAYSTWYHQYITFPIQALTAAILLREYTITDYGTYLSIPRGLRDQMVIYKKGTNDADDPLLNPAHLLVGARAKNAEMAKEFAKWLVSKEGGQKVIEGFKKDGQQLYSPAPYRHEGHHHHHH”: the “soluble on expression in E. coli” value is on record as “soluble”.

“MSLDPFSIVQDFRSIAGEEALEIAESGEENDNEQFQNWELEAKFWDLVGLLVEYRTSETVDKDINVHSYNSNVVFQKQLLQSNKGIYEIWLIKSWLEANIGIPERPSSLCTTKWSSSMIAGTVKSMDSDSILRDPTTNLQPDDRQNDHAFFVYAFRLLLAGQFEKLTEECEFTDNLTLNLILRGMESYVDPNVDTDMTDEYASQQGIKKHALWRRSVYALSQDPLLDPYEAAIYTYLSGDSPTNLRIDGLDWETELLIYVNQIWNVTMENYLIEHGRVDNDELITDMDTACPSLSQVLNILAAKYPDESEHPIRVLTASVLLNTIEPVMKSSTDMLLDVIKGRDEDNALFNESYLLRILTNLTIFLDIVSPDTIDISNKSKLLTSYISLLSYYGLYDVIPVFVSFLSQEEIVETYSFFLTNLIDPNLRQKQMEISKYLGLPIANILRRTAQRIFEETDQYYIVDSDIELTNEVSEVDQRLMNGVEWLIENGLYTDSIDTIIALSRRFLINGKVKALELFVDNHDVPNLLKEYQLERLSSQEEDHDLKTTELLQYTSLLSTFKKQEEWVKSSQLFNTESNLRSLIKQFKGFSNTIIKLVTTFLVDLIDNEEVNDSDVLYEIRALYTPFLIMELHNNLISASENLKVSTFVQEAIDLSILVANETDKIYLLFQSNGKLTTYLQMVAKASALFGREGHHHHHH”: the “soluble on expression in E. coli” value is “not soluble”.

Consider “MSLDREKANKNLLKILEAINGNSLVLFKSFEDLDSFYKYLKREITKTNIKNKNIHVYEQGMDGKEAKELKERFEKIGGILLATGRFAEGVDIPGEALVGVVIDSLPFPVPTPLILREQKILEERFKIRGVRDAHWRAFLMTSFDRMARTLVQMIGRLIRTENDYGVVVIQDKRFADWVGRVMREKGEGHHHHHH”, for which the “soluble on expression in E. coli” value is “soluble”.

With “MSLDRILTFDCYGTLIDTKPVFDAISNIAKNNILNSKDAVNIYVNYEDRLMYGETYIPYDKLIKQVLEYCDMELVTNVFSKSYDEIISVHKRLKPFKEVVESLEKIHKKGYELALMSNSVHDIIDYNLDALGNVFNNVFLSEDIHAYKPQLKFFKYVEERLELKQKKHCHIAKGYWWDIVPCSKLGWRKIWVNRENKKGNKCHEPYEEVHTLDEVINLIEGHHHHHH”, the “soluble on expression in E. coli” value was “soluble”.

Take “MSLDRPRCCLRGKECSINRFQQVESRWGYSGTSDRIRFSVNKRIFVVGFGLYGSIHGPTDYQVNIQIIHTDSNTVLGQNDTGFSCDGSASTFRVMFKEPVEVLPNVNYTACATLKGPDSHYGTKGMRKVTHESPTTGAKTCFTFCYAAGNNNGTSVEDGQIPEVIFYTEGHHHHHH”: the “soluble on expression in E. coli” value is recorded as “soluble”.

On to “MSLDRSNTVELHAAGAQSAQGARPDQEDEYIILTPGGSPNEIGDSIAFFAVFDGHGTGIVSNHAKEHIPLLLFESDEFRSGNYERAMQAAIDKEDELLLQGFREGQNFFATSGSTASLALVDMKNGVLVVGNIGDSHILMAERDPENGQVKSIERLTTSHKPESADEKARIEKAGGHVHSHHDISRIGSLNMSRALGDLQYKTPLISAAAAPKTEGQKFACAPDPQNVSSQDGAQAGTGRDDFITVEMSFRRIDLHKEKQYLLALTTDGVTNALDDGKIMNGIAEMFNTGSKADEVARKVVDQAASTEYADNATCVTVFLNGTEARLAEGHHHHHH”, for which the “soluble on expression in E. coli” value was “soluble”.

For the sequence “MSLDRTLRGRVEGKVVLITGATSGIGKATARKLAEAGAKVLTIARDEHKIAETQAEFAELGLTLQVYQGDLADLSQGEAITRQIVAEHGGVDILINNAGRSIRRAIEDSFDRFHDLERTMQLNYFGTLKVIMGLLPTMIEKKKGHIINISSIGVLTNAPRFSAYVASKSALDAWVRTAASEFADKGVNFSIINMPLVKTPMVAPTKVYEQVPMMTPEEAADLVCDTIINKHVRLATRLGVFGQVIHALAPRVAQVIMNTSEGHHHHHH”, the “soluble on expression in E. coli” value was “not soluble”.

Take “MSLDSSPHSQVNDPLESFNRQMWTINYDYLDPYVVRPVSLFYVGYVPKPVRSGIANFLSNLDEPASMVNNLLMGNGTKAVDHFNRFWINTSFGLLGLIDIASEAGIKKYDDKAFSDAVGHYGVGNGPYLMVPGYGPYTVREVTDVVDGMYFPLAYLNIWAGVGKWALEGMETRAALVSQEALLQDSPDPYSLARDAYLQRQAFKAEIQVDDYDPEEEEYLDEYLNEGEGHHHHHH”: the “soluble on expression in E. coli” value is “soluble”.
